Measurements from patent publication US20230374147A1.

Molecular target: His-tagged mouse BCMA (Acro Biosystems, BCA-M52H3) (mouse) (UniProt O88472)
Test: ELISA, hybridoma supernatant, coated His-tagged antigen

Sequence of His-tagged mouse BCMA (Acro Biosystems, BCA-M52H3) (mouse) (O88472 1-49 limits assumed): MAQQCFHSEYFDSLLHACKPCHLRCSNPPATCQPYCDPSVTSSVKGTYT

ELISA values (OD 450 nm): 0.025 OD
B1: 539-SP5-D7 (antibody produced by the hybridoma) (antibody, V domains shown)
VH: EVMLVDSGGNLVKPGGSLKLSCAASGFTFSNYVISWVRQTPEKRLEWVATISTVGTNTYYPDSVRGRFTISRDNAENTLYLQMSSLRSEDTAIYYCSRHKYGYDDPSYAMDYWGQGTSVTVSS
VL: QLVLTQSSSASFSLGASAKLTCTLSSQHSTYTIEWYQQQPLKPPKYVMELKKDGSHSTGDGIPDRFSGSSSGADRYLSISNIQAEDEAIYICGVGDTVKEQFVYVFGGGTKVTVL
